The record followed here is the supplement of paper PMC10567573.

B1: ESRRG (parent)
chain: YSCPATNECEITKRRRKSCQACRF
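Note: lentivirally expressed fusions sorted by FACS into six bins by GFP to DsRed ratio, PSI derived from sequencing read proportions per bin multiplied by bin number.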

The variants in this data set derive from B1. Briefly: protein stability index of a GFP-peptide fusion (GPS, HEK-293T) (PSI 1-6); higher = more stable. Particulars: c terminus: a fixed tail appended.
With YSCPATNECEITKRRRKHCQACRF [S18H], the protein stability index amounted to 3.48.

YSCPATNECEITKRRRKFCQACRF [S18F]: the protein stability index was found to be 2.9. As to YSCPATNECEITKRRRKQCQACRF [S18Q], the protein stability index was determined as 3.6. As for YSCPATNECEITKRRRKLCQACRF [S18L], the protein stability index is 3.19.

As for YSCPATNECEITKRRRKKCQACRF [S18K], the protein stability index is 3.51. With YSCPATNECEITKRRRKECQACRF [S18E] the figure was 3.43; with YSCPATNECEITKRRRKTCQACRF [S18T], 3.59; with YSCPATNECEITKRRRKCCQACRF [S18C], 3.31.

On to YSCPATNECEITKRRRKPCQACRF [S18P], for which the protein stability index stood at 3.66. With YSCPATNECEITKRRRKICQACRF [S18I] the figure was 3.16. As for YSCPATNECEITKRRRKDCQACRF [S18D], the protein stability index amounted to 3.6. As for YSCPATNECEITKRRRKYCQACRF [S18Y], the protein stability index turned out to be 2.87.

Take YSCPATNECEITKRRRKRCQACRF [S18R]: the protein stability index is 3.8. With YSCPATNECEITKRRRKMCQACRF [S18M] the figure was 3.38; with YSCPATNECEITWRRRKSCQACRF [K13W], 2.52; with YSCPATNECEITGRRRKSCQACRF [K13G], 3.16. With YSCPATNECEITYRRRKSCQACRF [K13Y] the figure was 2.78; with YSCPATNECEITLRRRKSCQACRF [K13L], 3.15; with YSCPATNECEITIRRRKSCQACRF [K13I], 3.15. With YSCPATNECEITPRRRKSCQACRF [K13P] the figure was 3.46; with YSCPATNECEITMRRRKSCQACRF [K13M], 3.15.

With YSCPATNECEITCRRRKSCQACRF [K13C], the protein stability index was determined as 3.56. For the variant YSCPATNECEITHRRRKSCQACRF [K13H], the protein stability index amounted to 3.44.

YSCPATNECEITTRRRKSCQACRF [K13T]: the protein stability index stood at 3.2. With YSCPATNECEITDRRRKSCQACRF [K13D] the figure was 3.68; with YSCPATNECEITARRRKSCQACRF [K13A], 3.28; with YSCPATNECEITNRRRKSCQACRF [K13N], 3.43. Regarding YSCPATNECEITVRRRKSCQACRF [K13V], the protein stability index came to 3.59. Take YSCPATNECEITRRRRKSCQACRF [K13R]: the protein stability index worked out at 3.64. With YSCPATNECEITSRRRKSCQACRF [K13S] the figure was 3.5; with YSCPATNECEITERRRKSCQACRF [K13E], 3.45. With YSCPATNECEITFRRRKSCQACRF [K13F] the figure was 2.67.

For YSCPATNECEITQRRRKSCQACRF [K13Q], the protein stability index was determined as 3.45. With YSCPATNECEIWKRRRKSCQACRF [T12W] the figure was 2.31. With YSCPATNECEIFKRRRKSCQACRF [T12F] the figure was 2.19; with YSCPATNECEIGKRRRKSCQACRF [T12G], 3.41. As to YSCPATNECEIHKRRRKSCQACRF [T12H], the protein stability index was 4.38. With YSCPATNECEIAKRRRKSCQACRF [T12A] the figure was 3.32; with YSCPATNECEIRKRRRKSCQACRF [T12R], 3.56.

With YSCPATNECEIQKRRRKSCQACRF [T12Q], the protein stability index came out at 3.25. With YSCPATNECEILKRRRKSCQACRF [T12L] the figure was 2.71. As to YSCPATNECEIYKRRRKSCQACRF [T12Y], the protein stability index was 2.69. With YSCPATNECEIPKRRRKSCQACRF [T12P], the protein stability index came out at 3.86.

For the variant YSCPATNECEISKRRRKSCQACRF [T12S], the protein stability index is 3.46. With YSCPATNECEIMKRRRKSCQACRF [T12M] the figure was 2.97; with YSCPATNECEIKKRRRKSCQACRF [T12K], 3.27.

Regarding YSCPATNECEINKRRRKSCQACRF [T12N], the protein stability index is 3.59. With YSCPATNECEIDKRRRKSCQACRF [T12D] the figure was 3.74. For YSCPATNECEIEKRRRKSCQACRF [T12E], the protein stability index is 3.75. As to YSCPATNECEICKRRRKSCQACRF [T12C], the protein stability index amounted to 3.85. For YSCPATNECEIVKRRRKSCQACRF [T12V], the protein stability index was 3.33. As for YSCPATNECEIIKRRRKSCQACRF [T12I], the protein stability index was 2.69. With YSCPATNECPITKRRRKSCQACRF [E10P], the protein stability index came to 3.09. With YSCPATNECHITKRRRKSCQACRF [E10H], the protein stability index came to 3.08. With YSCPATNECLITKRRRKSCQACRF [E10L] the figure was 3.06; with YSCPATNECSITKRRRKSCQACRF [E10S], 3.14.

YSCPATNECIITKRRRKSCQACRF [E10I]: the protein stability index came to 2.8. As for YSCPATNECQITKRRRKSCQACRF [E10Q], the protein stability index is 3.59. Turning to YSCPATNECMITKRRRKSCQACRF [E10M], the protein stability index worked out at 2.9. As to YSCPATNECYITKRRRKSCQACRF [E10Y], the protein stability index was 2.39. Take YSCPATNECCITKRRRKSCQACRF [E10C]: the protein stability index was 3.06. On to YSCPATNECRITKRRRKSCQACRF [E10R], for which the protein stability index came out at 3.44. With YSCPATNECFITKRRRKSCQACRF [E10F] the figure was 2.53; with YSCPATNECAITKRRRKSCQACRF [E10A], 3.27. For the variant YSCPATNECGITKRRRKSCQACRF [E10G], the protein stability index was found to be 3.23.

On to YSCPATNECKITKRRRKSCQACRF [E10K], for which the protein stability index was found to be 3.41.

Regarding YSCPATNECTITKRRRKSCQACRF [E10T], the protein stability index came out at 3.27. With YSCPATNECVITKRRRKSCQACRF [E10V] the figure was 2.66. With YSCPATNECDITKRRRKSCQACRF [E10D] the figure was 3.34; with YSCPATNECNITKRRRKSCQACRF [E10N], 3.41; with YSCPATNECWITKRRRKSCQACRF [E10W], 2.22. With YSCPATNEYEITKRRRKSCQACRF [C9Y] the figure was 2.69. For the variant YSCPATNEVEITKRRRKSCQACRF [C9V], the protein stability index worked out at 3.46. With YSCPATNEWEITKRRRKSCQACRF [C9W] the figure was 2.54; with YSCPATNETEITKRRRKSCQACRF [C9T], 3.61; with YSCPATNECEITKRHRKSCQACRF [R15H], 4.16. On to YSCPATNECEITKRMRKSCQACRF [R15M], for which the protein stability index is 2.96.

In the case of YSCPATNECEITKRYRKSCQACRF [R15Y], the protein stability index stood at 3.34. On to YSCPATNECEITKRTRKSCQACRF [R15T], for which the protein stability index amounted to 3.22. With YSCPATNECEITKRPRKSCQACRF [R15P] the figure was 3.28; with YSCPATNECEITKRVRKSCQACRF [R15V], 3.22. With YSCPATNECEITKRGRKSCQACRF [R15G] the figure was 3.91. As for YSCPATNECEITKRCRKSCQACRF [R15C], the protein stability index came out at 3.46. With YSCPATNECEITKRERKSCQACRF [R15E] the figure was 3.37. With YSCPATNECEITKRQRKSCQACRF [R15Q] the figure was 3.38.

Turning to YSCPATNECEITKRKRKSCQACRF [R15K], the protein stability index came out at 2.91.

In the case of YSCPATNECEITKRARKSCQACRF [R15A], the protein stability index stood at 3.33. As for YSCPATNECEITKRWRKSCQACRF [R15W], the protein stability index turned out to be 2.81.

Regarding YSCPATNECEITKRNRKSCQACRF [R15N], the protein stability index amounted to 3.62.

Consider YSCPATNECEITKRFRKSCQACRF [R15F], for which the protein stability index came out at 2.96. Take YSCPATNECEITKRIRKSCQACRF [R15I]: the protein stability index was determined as 3.32. With YSCPATNECEITKRDRKSCQACRF [R15D] the figure was 4.01; with YSCPATNECEITKRLRKSCQACRF [R15L], 2.79; with YSCPATNECEITKRSRKSCQACRF [R15S], 3.48.
